Laboratory results reported in patent US20240261333A1 (published 2024).

Legend:
Assay in all cases: co-IP, anti-FLAG, lysate of cells with C-FLAG B3GNT2; mass spectrometry
RPS3 = RPS3 (human, UniProt P23396 2-243)
Method: (§1) Cells were plated in 10-cm cell culture dishes and grown to 60-80% confluency. For each condition, two biological replicates were harvested for co-IP. Cells were washed with PBS and 4 mL of lysis buffer (20 mM HEPES, 1% Triton X-100, 150 mM NaCl, 1 mM EDTA, and 10% glycerol) containing protease inhibitor cocktail was added. Cells were scraped and lysate was incubated at 4° C. under rotary agitation for 1 h. Lysate was centrifuged at 14,000×g for 10 min at 4° C. Supernatant was transferred to a new tube and an aliquot was taken as the input. […] For Western blots, 10 μg/mL Chicken Anti-FLAG (Aves labs ET-DY100) and IgY control (R&D Systems AB-101-C) antibodies were biotinylated (Thermo Fisher Scientific 90407) and added to the respective conditions. Lysates with antibodies were incubated at 4° C. under rotary agitation overnight. For each mL of lysate, 50 μL of Pierce Protein A/G Magnetic Beads (Mass spectrometry; Thermo Fisher Scientific 88803) or Pierce Streptavidin Magnetic Beads (Western blot; Thermo Fisher Scientific 88817) was washed twice with lysis buffer. Lysates with antibodies were added to the beads and incubated at 4° C. under rotary agitation for 4 h. Beads were washed with lysis buffer 3 times and resuspended in lysis buffer for storage.
(§2) Magnetic beads were resuspended in 100 mM Tris pH 7.8, reduced, alkylated and digested with trypsin at 37° ° C. overnight. This solution was subjected to solid phase extraction to concentrate the peptides and remove unwanted reagents followed by injection onto a Shimadzu HPLC with fraction collector. Eight fractions were collected and after concentration were injected on a Waters NanoAcquity HPLC equipped with a self-packed Aeris 3 μm C18 analytical column 0.075 mm by 20 cm, (Phenomenex). Peptides were eluted using standard reverse-phase gradients. The effluent from the column was analyzed using a Thermo Orbitrap Elite mass spectrometer (nanospray configuration) operated in a data dependent manner for 54 minutes. The resulting fragmentation spectra were correlated against the known database using Proteome Discover 1.4 (Thermo Fisher Scientific).

RBM39 = target: T1, RBM39 (human, UniProt Q14498-3 2-508, limits assumed)
T1 construct: also called NP_001310351.1 (+3)
T1 sequence (looked up): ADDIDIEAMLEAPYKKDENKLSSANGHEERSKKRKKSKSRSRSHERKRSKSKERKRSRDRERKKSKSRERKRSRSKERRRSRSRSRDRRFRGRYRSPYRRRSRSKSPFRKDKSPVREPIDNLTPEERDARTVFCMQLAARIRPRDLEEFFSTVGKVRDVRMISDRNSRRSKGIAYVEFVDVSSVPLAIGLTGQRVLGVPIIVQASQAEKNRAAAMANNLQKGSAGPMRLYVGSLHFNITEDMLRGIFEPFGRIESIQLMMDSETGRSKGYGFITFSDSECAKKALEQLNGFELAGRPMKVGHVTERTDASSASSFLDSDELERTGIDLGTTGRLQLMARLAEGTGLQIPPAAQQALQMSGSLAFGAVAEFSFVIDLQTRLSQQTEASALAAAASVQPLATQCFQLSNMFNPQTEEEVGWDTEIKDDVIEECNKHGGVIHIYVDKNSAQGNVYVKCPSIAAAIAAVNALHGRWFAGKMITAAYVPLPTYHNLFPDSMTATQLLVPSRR
Method: as §1, §2

FAU = FAU (human, UniProt P62861 75-133)
Method: as §1, §2

FUBP3 = target: T2, FUBP3 (human, UniProt Q96I24 2-572)
T2 construct: also called NP_003925.1 (+2)
T2 sequence (looked up): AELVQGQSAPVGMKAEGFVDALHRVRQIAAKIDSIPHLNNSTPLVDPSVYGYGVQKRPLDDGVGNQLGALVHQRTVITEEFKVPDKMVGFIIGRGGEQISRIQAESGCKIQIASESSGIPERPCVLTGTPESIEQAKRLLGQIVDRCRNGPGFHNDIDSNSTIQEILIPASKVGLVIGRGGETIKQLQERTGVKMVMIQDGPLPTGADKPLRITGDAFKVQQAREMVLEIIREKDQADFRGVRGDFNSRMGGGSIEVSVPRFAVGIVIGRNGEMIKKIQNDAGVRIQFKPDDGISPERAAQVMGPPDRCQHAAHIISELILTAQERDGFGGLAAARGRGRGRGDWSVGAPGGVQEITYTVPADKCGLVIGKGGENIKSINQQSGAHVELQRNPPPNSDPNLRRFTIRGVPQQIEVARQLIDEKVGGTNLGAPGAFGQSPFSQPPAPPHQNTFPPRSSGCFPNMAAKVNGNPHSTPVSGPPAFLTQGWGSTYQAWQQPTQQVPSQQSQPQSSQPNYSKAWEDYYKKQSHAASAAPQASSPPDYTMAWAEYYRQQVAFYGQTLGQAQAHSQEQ
Method: as §1, §2

ATXN2 = target: T3, ATXN2 (human, UniProt Q99700 1-1313)
T3 construct: also called NP_002964.3
T3 sequence (Q99700 whole entry): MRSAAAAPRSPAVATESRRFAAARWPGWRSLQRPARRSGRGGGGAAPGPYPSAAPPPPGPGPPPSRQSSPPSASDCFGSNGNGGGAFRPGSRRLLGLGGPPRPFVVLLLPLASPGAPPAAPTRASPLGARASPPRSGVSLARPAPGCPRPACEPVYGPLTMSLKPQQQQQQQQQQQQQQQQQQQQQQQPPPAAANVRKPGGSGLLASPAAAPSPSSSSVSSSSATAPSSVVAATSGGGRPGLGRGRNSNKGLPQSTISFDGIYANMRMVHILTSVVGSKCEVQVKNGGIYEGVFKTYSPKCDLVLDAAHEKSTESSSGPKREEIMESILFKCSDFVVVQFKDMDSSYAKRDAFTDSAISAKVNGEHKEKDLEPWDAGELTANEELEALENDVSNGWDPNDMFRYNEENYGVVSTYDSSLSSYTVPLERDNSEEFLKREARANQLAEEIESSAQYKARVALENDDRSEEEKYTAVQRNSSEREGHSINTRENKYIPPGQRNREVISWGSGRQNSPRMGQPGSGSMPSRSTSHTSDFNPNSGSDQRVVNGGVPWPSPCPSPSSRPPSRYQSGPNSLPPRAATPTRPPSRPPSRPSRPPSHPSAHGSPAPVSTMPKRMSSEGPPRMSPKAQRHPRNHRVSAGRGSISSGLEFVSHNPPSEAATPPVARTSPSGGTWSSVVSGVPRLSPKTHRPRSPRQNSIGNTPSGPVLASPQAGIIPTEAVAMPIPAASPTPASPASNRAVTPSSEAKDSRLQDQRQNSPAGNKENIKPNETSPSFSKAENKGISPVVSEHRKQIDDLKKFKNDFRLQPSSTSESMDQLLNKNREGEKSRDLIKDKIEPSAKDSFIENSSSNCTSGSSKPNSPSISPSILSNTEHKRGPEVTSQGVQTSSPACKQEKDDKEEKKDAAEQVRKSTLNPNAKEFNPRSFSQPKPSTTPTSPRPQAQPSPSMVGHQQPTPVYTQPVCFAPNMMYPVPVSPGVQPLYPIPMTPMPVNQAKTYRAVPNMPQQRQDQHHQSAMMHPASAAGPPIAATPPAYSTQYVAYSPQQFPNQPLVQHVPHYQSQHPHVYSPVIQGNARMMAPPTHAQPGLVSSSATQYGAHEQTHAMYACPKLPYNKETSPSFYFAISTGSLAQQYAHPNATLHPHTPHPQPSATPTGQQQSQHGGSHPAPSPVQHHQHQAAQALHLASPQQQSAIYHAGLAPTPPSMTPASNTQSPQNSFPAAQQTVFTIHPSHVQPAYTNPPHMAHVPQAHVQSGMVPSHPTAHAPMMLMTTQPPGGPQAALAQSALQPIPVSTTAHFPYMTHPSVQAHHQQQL
Method: as §1, §2

DDX5 = target: T4, DDX5 (human, UniProt P17844 1-614)
T4 construct: also called NP_001307526.1
T4 sequence (P17844 whole entry): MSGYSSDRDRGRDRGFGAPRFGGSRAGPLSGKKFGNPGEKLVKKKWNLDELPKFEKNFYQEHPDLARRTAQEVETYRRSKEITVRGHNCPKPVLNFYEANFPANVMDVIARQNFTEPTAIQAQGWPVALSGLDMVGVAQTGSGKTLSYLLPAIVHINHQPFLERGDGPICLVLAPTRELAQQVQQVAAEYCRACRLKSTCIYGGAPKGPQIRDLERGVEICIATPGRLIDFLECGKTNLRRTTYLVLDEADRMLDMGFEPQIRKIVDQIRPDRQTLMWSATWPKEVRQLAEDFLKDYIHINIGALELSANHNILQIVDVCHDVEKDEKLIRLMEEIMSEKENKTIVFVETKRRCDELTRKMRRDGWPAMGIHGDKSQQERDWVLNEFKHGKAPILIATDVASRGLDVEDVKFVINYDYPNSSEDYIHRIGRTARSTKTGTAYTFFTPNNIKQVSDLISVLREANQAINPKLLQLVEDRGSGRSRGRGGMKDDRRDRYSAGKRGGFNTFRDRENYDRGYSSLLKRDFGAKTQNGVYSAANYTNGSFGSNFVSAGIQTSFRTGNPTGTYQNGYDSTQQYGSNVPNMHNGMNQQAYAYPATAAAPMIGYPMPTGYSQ
Method: as §1, §2

B1: C-terminal FLAG tagged B3GNT2 (enzyme, human, UniProt Q9NY97 1-397, looked up)
chain: MSVGRRRIKLLGILMMANVFIYFIMEVSKSSSQEKNGKGEVIIPKEKFWKISTPPEAYWNREQEKLNRQYNPILSMLTNQTGEAGRLSNISHLNYCEPDLRVTSVVTGFNNLPDRFKDFLLYLRCRNYSLLIDQPDKCAKKPFLLLAIKSLTPHFARRQAIRESWGQESNAGNQTVVRVFLLGQTPPEDNHPDLSDMLKFESEKHQDILMWNYRDTFFNLSLKEVLFLRWVSTSCPDTEFVFKGDDDVFVNTHHILNYLNSLSKTKAKDLFIGDVIHNAGPHRDKKLKYYIPEVVYSGLYPPYAGGGGFLYSGHLALRLYHITDQVHLYPIDDVYTGMCLQKLGLVPEKHKGFRTFDIEEKNKNNICSYVDLMLVHSRKPQEMIDIWSQLQSAHLKC
notes: Overexpressed in cells and pulled down from the lysate with mouse anti-FLAG antibody; also called C-FLAG B3GNT2; C-term flag; not shown: C-terminal FLAG tag
RPS3
  co-IP mass spectrometry count: 23
RBM39
  co-IP mass spectrometry count: 5
FAU
  co-IP mass spectrometry count: 7
FUBP3
  co-IP mass spectrometry count: 9
ATXN2
  co-IP mass spectrometry count: 3
DDX5
  co-IP mass spectrometry count: 22
